# According to PMC4263763, “Crystal Structure of Calcium Binding Protein-5 from Entamoeba histolytica and Its Involvement in Initiation of Phagocytosis of Human Erythrocytes” (PLoS Pathogens, 2014):
# Several values for one entry are separate records, joined by “and”; a condition that tells them apart may be missing. Identical values can stand only once. Entries after “also recorded” stand apart in the source; their conditions may differ.
# Tests used:
# EhCaBP5 [1] = experiment: SPR binding of native and mutated IQ motif peptides (analyte) to immobilized EhCaBP5 (model validation); set-up: species or system Entamoeba histolytica; conditions: peptide as analyte, 25°C
# Method: To validate EhCaBP5-IQ motif complex model, we obtained commercially synthesized two mutated Myosin 1B IQ motif peptide IQ-M1 A*A*KAWKGYRNRKR (where IQ is mutated to AA) and IQ-M2 IQKAWKGYD*ND*KD* (Where R is mutated to D). The EhCaBP5 was immobilized on sensor chip up to 500 resonance units and native myosin 1B IQ motif peptide and mutated IQ motif peptide were passed as analyte at concentration of […]. The data were recorded at 25°C and data analysis was performed using Biacore […] SPR Kinetics evaluation software.
# [2] = biological target: IQ motif peptide of myosin 1B (native) (Entamoeba histolytica); experiment: SPR
# [3] = biological target: Entamoeba histolytica calcium binding protein-5 (EhCaBP5), recombinant (Entamoeba histolytica); experiment: SPR; EhCaBP5 immobilised on sensor chip up to 500 RU; native and mutated IQ motif peptides as analyte at 25, 50, 75, 100 and 125 mM (so in the source); 25°C
# EhCaBP5 [4] = experiment: SPR binding of EhCaBP5 (analyte) to immobilized myosin IQ motif peptides; set-up: species or system Entamoeba histolytica; conditions: Biacore T200, peptide immobilized (2000 RU, CM4 chip), EhCaBP5 as analyte, pH 7.4
# Source text: The E. histolytica genome codes for two myosin, myosin I (accession number EAL48894) and myosin II (accession number EAL51645). Myosin I has one IQ motif and myosin II has two IQ motifs. To check the interaction between EhCaBP5 and myosin IQ motifs, we commercially synthesized (obtained) peptides of IQ motif of myosin 1B (unconventional myosin) (IQKAWKGYRNRKR) and second IQ motif of heavy chain myosin (myosin II) ([…]), which is expected to bind to ELC. For the binding study we used Biacore T200 apparatus (Biacore, GE Healthcare) at National Institute of Plant and Genome Research New Delhi, India. A total of 2000 resonance units (RU) of peptides were immobilized on a research grade S series CM4 sensor chip in 10 mM sodium acetate, pH 5.0 according to the manufacturer's amine coupling kit. After peptide immobilization, the surface was blocked with 1 M ethanolamine at pH 8.5, followed by regeneration using 50 mM NaOH. The interaction experiments were performed using buffer containing 10 mM HEPES pH 7.4, 150 mM NaCl and 0.2 mM Calcium chloride. We also performed interaction experiment in absence of Ca^2+ and supplementing 5 mM of EGTA in the above buffer. […] The association kinetics for EhCaBP5 was monitored for 300 seconds and dissociation was monitored for the next 300 seconds.
# [5] = ITC; ref [17]; cited from earlier work
# Source text: Overall, the molecule is divided in two globular lobes, where each lobe has four alpha helices connected by loops. The N-terminal lobe has one EF-hand motif with a calcium ion bound to the loop between two helices. The C-terminal lobe has two small anti-parallel beta strands along with four loops (Fig. 1A). Signature residues of an additional EF-hand motif are found in the C-terminal lobe (residues87 to 98). In the crystal structure these residues form a loop between two helices similar to that of a typical EF-hand but density for Ca^2+ is not observed. Consistent with the crystals structure, ...
# myosin 1B = experiment: Co-immunoprecipitation of myosin 1B from total cell lysate; type: binding, Entamoeba histolytica; conditions: immobilized anti-EhCaBP5 antibody, 800 µg E. histolytica lysate, 6 h at 4°C, with EGTA; western blot
# Method: Immunoprecipitation was carried out as described previously. Briefly, CNBr-activated Sepharose-4B beads (Pharmacia) were conjugated with anti-EhCaBP5 antibody. Crude immunoglobulins were collected from the immunized serum using 40% ammonium sulphate and subsequently dialysed in coupling buffer (bicarbonate buffer). Usually, 10 mg immunoglobulin protein was added per gram of CNBr-activated Sepharose-4B beads. The resin was mixed gently for 18 h at 4°C. The conjugated Sepharose beads were incubated with E. histolytica lysate for 6 h at 4°C. The beads were then washed thrice with wash buffer (10 mM Tris-Cl (pH 7.5), 150 mM NaCl, 1 mM imidazole, 1 mM magnesium acetate, 2 mM β-ME and protease inhibitor cocktail). Ca^2+ and EGTA were maintained throughout the process as required. After incubation the beads were washed sequentially with 60 mM Tris-Cl (pH 6.8), 100 mM NaCl and with 60 mM Tris-Cl (pH 6.8). The pellet was suspended in 2× SDS polyacrylamide gel electrophoresis (PAGE) buffer and boiled for 5 min followed by centrifugation for 5 min. The proteins were then analysed by western blotting.
# F-actin = experiment: Co-sedimentation assay with F-actin; type: binding; conditions: in vitro, pellet fraction containing F-actin
molecule,measurement,setting,value
"A*A*KAWKGYRNRKR [IQ-M1, mutated Myosin 1B IQ motif peptide IQ-M1 (where IQ is mutated to AA)]",change in Kd versus native peptide (in words),EhCaBP5 [1],could not find any significant change in Kd value
"Entamoeba histolytica calcium binding protein-5 (EhCaBP5), recombinant (natural protein)",Kd,[2],2.4 nM and 5.4 nM
IQ motif peptide of myosin 1B (native),Kd,[3],0.64 nM
LQACARAFAARKHFS [myosin II IQ motif],binding to EhCaBP5 (in words),EhCaBP5 [4],does not bind
EhCaBP5: calcium binding protein 5 from E. histolytica (accession number EAL46660) (protein) MQKHNEDLKESFLLFDGDGDGYLTLNEFESLVRVLGVVMETSAIASTYNSNSKVRGMSYELFTSCFSQLKTKSFNKDEIKTAINVLDKDKKGFIPAIELRRILSTIGDNMEQKEITDLFTFMGIDEQGVVKVDDFINQLMTVFK,number of Ca^2+ binding sites,[5],one
same,co-precipitation of myosin 1B (in words),myosin 1B,precipitated myosin 1B along with EhCaBP5 even in the presence of EGTA
same,co-sedimentation with / binding to F-actin (in words),F-actin,No significant amount of EhCaBP5 was observed in the pellet fraction containing F-actin; also recorded: does not bind F-actin
